Numbering of substitutions follows the chain as printed.

The source of these data is patent publication US20230002466A1 (ELPIS BIOPHARMACEUTICALS, published 2023).

Assay [1] addresses T1, human IL2Rα Fc fusion protein (human, UniProt P01589 22-213, limits assumed).
T1 construct: also called Recombinant Fc-tagged human IL2Rα; not shown: Fc
T1 sequence (looked up): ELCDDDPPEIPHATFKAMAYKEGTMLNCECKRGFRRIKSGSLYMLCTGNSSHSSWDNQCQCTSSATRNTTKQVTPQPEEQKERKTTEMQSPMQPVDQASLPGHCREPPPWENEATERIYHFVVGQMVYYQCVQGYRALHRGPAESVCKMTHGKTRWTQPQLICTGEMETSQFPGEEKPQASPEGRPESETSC
Put plainly: ELISA, single point, Fc-tagged human IL2Rα coated, anti-His-HRP; concentration not printed (Example 14). In a few lines:
(§1)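 IL2 mutants, diluted from 1000 nM to 0 nM, were incubated 2 h at RT on plates coated overnight at 4 °C with Fc-tagged human IL2Rα (or IL2Rβ). Bound protein detected with anti-HisTag-HRP (1:5000, 1 h) and TMB. Absorbance read at 450 nm after acid stop.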
In general terms: In an ELISA, binding on a coated surface is turned into a signal by an enzyme label.

For assay [2], the target named is T2, human IL2Rβ Fc fusion protein (human, UniProt P14784 27-239).
T2 construct: also called Recombinant Fc-tagged human IL2Rβ; not shown: Fc
T2 sequence (looked up): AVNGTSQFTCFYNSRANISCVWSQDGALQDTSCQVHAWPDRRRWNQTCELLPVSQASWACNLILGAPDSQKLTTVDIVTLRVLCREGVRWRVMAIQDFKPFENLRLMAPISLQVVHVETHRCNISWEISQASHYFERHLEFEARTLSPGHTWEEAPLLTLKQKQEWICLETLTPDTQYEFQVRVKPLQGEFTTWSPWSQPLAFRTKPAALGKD
The assay can be described thus: ELISA, Fc-tagged receptor coated, anti-HisTag-HRP. In a few lines:
as §1

In assay [3] the target is T3, human IL2Rβ (human, UniProt P14784 27-239).
T3 construct: also called IL2β; CD122
T3 sequence (looked up): T2 sequence (looked up)
The assay can be described thus: SPR, single concentration. On the technique in general: Surface plasmon resonance follows binding to a sensor surface in real time, without labels.

Assay [4] deals with T4, human IL2Rα (human, UniProt P01589 22-213, limits assumed).
T4 construct: also called IL2α; CD25
T4 sequence (looked up): T1 sequence (looked up)
Put plainly: SPR (Biacore T200), human IL2Rα, single concentration of the IL2 protein, not printed (Example 13).

Assay [5] deals with T1, human IL2Rα Fc fusion protein. The assay can be described thus: ELISA, receptor-Fc coated, anti-Flag HRP. The gist of the method: (§2)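 Plates coated overnight at 4 C with IL2Rα or IL2Rβ Fc fusion at 2 ug/mL, then blocked. Flag-tagged IL2 mutant dilutions were added in duplicate, and binding was detected with anti-Flag HRP (1:5000) and TMB for 5 min. EC50 was fitted from OD450.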

Assay [6] addresses T2, human IL2Rβ Fc fusion protein. The assay can be described thus: ELISA, receptor-Fc coated, anti-Flag HRP. The gist of the method: as §2
Assay [7] concerns the target T3, human IL2Rβ. The assay can be described thus: SPR, IL2Rβ captured on Protein A chip, steady state affinity fitting. On the procedure: The assay was run with Biacore T200 control software version 2.0. For each cycle, 1 ug/mL of human IL2Rβ was captured for 60 seconds at flow rate of 10 uL/min on flow cell 2 in 1×HBSP buffer on Protein A sensor chip. 100 nM of HIS and Flag tag purified each IL2 mutant was 2-fold serial diluted and injected onto both reference flow cell 1 and IL2Rβ captured flow cell 2 for 150 seconds at flow rate of 30 uL/min followed by washing for 300 seconds. The flow cells were then regenerated with Glycine pH2 for 60 seconds at a flow rate of 30 uL/min. The assay was set up with 8 serial diluted concentration points in 96-well format. The kinetics data was analyzed with Biacore T200 evaluation software 3.0. The specific binding response unit was derived from subtraction of binding to reference flow cell 1 from target flow cell 2 (FIGS. 16A-16F, Table 10).

The target of assay [8] is T1, human IL2Rα Fc fusion protein. Put plainly: ELISA, Fc-tagged receptor coated, anti-HisTag-HRP. The gist of the method:
as §1

Assay [9] deals with T3, human IL2Rβ. Put plainly: SPR, multi-concentration.
In assay [10] the target is T4, human IL2Rα. Put plainly: SPR (Biacore T200), human IL2Rα, one trace per clone drawn, concentrations not printed (Example 13).
For assay [11], the target named is T4, human IL2Rα. Put plainly: SPR (Biacore T200), human IL2Rα, IL2 mutant in two-fold dilutions from 100 nM (Example 13).
The target of assay [12] is T3, human IL2Rβ. Put plainly: SPR, IL2Rβ captured on Protein A chip. The method, then:
Kinetic analysis of the receptor binding activities of IL2Rβ agonist with IL2Rα reduced activity mutations have been assessed by SPR technology with Biacore T200. The assay was run with Biacore T200 control software version 2.0. For each cycle, 1 ug/mL of human IL2Rβ was captured for 60 seconds at flow rate of 10 ul/min on flow cell 2 in 1×HBSP buffer on Protein A sensor chip. 100 nM of HIS and Flag tag purified each IL2 mutant was 2 fold serial diluted and injected onto both reference flow cell 1 and IL2Rβ captured flow cell 2 for 150 seconds at flow rate of 30 ul/mins followed by wash for 300 seconds. The flow cells were then regenerated with Glycine pH2 for 60 seconds at flow rate of 30 ul/mins. The assay was set up with 8 serial diluted concentration points in 96 well format. The kinetics data was analyzed with Biacore T200 evaluation software 3.0. The specific binding response unit was derived from subtraction of binding to reference flow cell 1 from target flow cell 2.

The target of assay [13] is T4, human IL2Rα. The assay can be described thus: SPR (Biacore T200), human IL2Rα, IL2 mutant in two-fold dilutions from 100 nM (Example 13). This is another data set of the same source.
The target of assay [14] is T4, human IL2Rα. Described as above. This is another data set of the same source.
The target of assay [15] is T4, human IL2Rα. Described as above. This is another data set of the same source.

B1: EP341 (ligand)
chain: APTSSSTKKTQLQLEHLLLDLQMILNGINNYKNPKLTDMLTFKFSMPKKATELKHLQCLEEELKPLEEVLNLAQSKNFHLTARDAIDNINVIVQELKGSETTFMCEYADETATIVEFLNRWITFSQSIISTLTGSHHHHHH
Broadly, the EC50 is the concentration giving half of the maximal effect. Read a low EC50 as higher potency in that assay. As a reminder, the Kd is the constant that tells how readily two partners part at equilibrium. With B1, the binding result in assay [1] is given as “no binding (tested: not printed)”; with human IL2Rα [4], “no binding (tested: single concentration, not printed)”. In addition, the EC50 in [2] was found to be 64.1 nM. This molecule also yielded an equilibrium dissociation constant (Kd) with human IL2Rβ [3] of 2.54 nM.

B2: EP253 (ligand)
chain: APTSSSTKKTQLQLEHLLLDLQMILNGINNYKNPKLTRMLTFKFYMPKKATELKHLQCLEEELKPLEEVLNLAQSKNFHLTPRDAIDNIRVIILELKGSETTFMCEYADETATIVEFLNRWITFCQSIISTLT
notes: not shown: His and Flag tags
Regarding B2, the EC50 in assay [5] was found to be 48.5 nM; in assay [6], 4.8 nM; in assay [8], 8.9 nM; in assay [2], 52.8 nM. This molecule also returned a Kd with human IL2Rβ [7] of 29.5 nM.

B3: EP339 (ligand)
chain: B2 chain with K35L, R38D, F42R, I93V, L94Q
notes: not shown: His and Flag tags
For B3, the binding result (in assay [1]; in the assay with human IL2Rα [10]) was “no binding (tested: not printed)” in each case. The molecule also gave a Kd in the assay with human IL2Rβ [9] of 35.9 nM. Besides, the half-maximal effective concentration (EC50) in assay [2] was 96.3 nM.

B4: EP402 (ligand)
chain: APTSSSTKKTQLQLEHLLLDLQMILNGINNYKNPSLTRMLTGKFYMPKKATELKHLQCLEEELKPLEEVLNLAQSKNFHLGVTDSISNAIVLARELKGSETTFMCEYADETATIVEFLNRWITFCQSIISTLT
notes: not shown: His and Flag tags
For orientation: koff means the first-order rate constant of dissociation. Read a high koff as fast dissociation. As a reminder, the kon is the second-order rate constant of association. Low values mean slower complex formation, high ones faster complex formation. Consider B4, for which the binding result in the assay with human IL2Rα [11] is “no binding (tested: 100 nM)”. In the assay with human IL2Rβ [12], this molecule returned a Kd of 0.108 nM, an off-rate (koff) of 0.000397 s⁻¹ and a kon of 3.68e+06 M⁻¹ s⁻¹.

B5: EP407 (ligand)
chain: B2 chain with R38D, Y45S, P82A, I86V, I89M, L94Q
notes: not shown: His and Flag tags
With B5, in the assay with human IL2Rα [13], the binding result is reported as “no binding (tested: 100 nM)”. In the assay with human IL2Rβ [12], this molecule returned a dissociation constant (Kd) of 0.611 nM, an off-rate constant (koff) of 0.00509 s⁻¹ and a kon of 8.34e+06 M⁻¹ s⁻¹.

B6: EP401 (ligand)
chain: B2 chain with K35S, F42G, P82A, I86V, I89M, L94Q
notes: not shown: His and Flag tags
Turning to B6, in the assay with human IL2Rα [14], the binding result is “no binding (tested: 100 nM)”. For the same molecule, in the assay with human IL2Rβ [12], the Kd amounted to 0.855 nM, the off-rate (koff) came out at 0.00616 s⁻¹ and the on-rate constant (kon) is 7.21e+06 M⁻¹ s⁻¹.

B7: EP338 (ligand)
chain: B2 chain with K35L, R38D, F42R, P82A, D87S, R90N, L94Q
notes: not shown: His and Flag tags
As to B7, the binding result (in [1]; with human IL2Rα [10]) was “no binding (tested: not printed)” in each case. In the assay with human IL2Rβ [9], this molecule showed a Kd of 38.3 nM. Further, the EC50 in assay [2] amounted to 105 nM.

B8: EP408 (ligand)
chain: B4 chain with S35K, R38D, G42F, Y45S
notes: not shown: His and Flag tags
For B8, the binding result with human IL2Rα [15] is on record as “no binding (tested: 100 nM)”. In the assay with human IL2Rβ [12], this molecule displayed a dissociation constant (Kd) of 0.233 nM, a koff of 0.000598 s⁻¹ and an association rate constant (kon) of 2.56e+06 M⁻¹ s⁻¹.
